This note sets out measurements from patent US20050048512A1 (published 2005).

Assay [1] addresses T1, CD28 (UniProt P10747 19-152, limits assumed).
T1 construct: Purified CD28 immobilized by NHS/EDC coupling (Biacore) or hydrophobic adsorption (ELISA); also called target protein CD28
As to the kind of experiment: ELISA, 10 ng CD28 per well, serial dilutions of protein, anti-HA-HRP detection.

The target in assay [2] is T1, CD28. The assay can be described thus: Biacore, CD28 on CM5 chip, 0.5 and 5 uM protein in flow.
The target of assay [3] is CD28 on monkey PBMC (monkey (cynomolgus), UniProt Q0PDN3 19-220). The assay can be described thus: cell-based or functional assay.
In assay [4] the target is CD28 on human PBMC (human, UniProt P10747 19-220). The assay can be described thus: cell-based or functional assay.
In assay [5] the target is T2, CD20 on Raji or Daudi cells (UniProt P11836 1-297, limits assumed).
T2 construct: whole, on cells
T2 sequence (looked up): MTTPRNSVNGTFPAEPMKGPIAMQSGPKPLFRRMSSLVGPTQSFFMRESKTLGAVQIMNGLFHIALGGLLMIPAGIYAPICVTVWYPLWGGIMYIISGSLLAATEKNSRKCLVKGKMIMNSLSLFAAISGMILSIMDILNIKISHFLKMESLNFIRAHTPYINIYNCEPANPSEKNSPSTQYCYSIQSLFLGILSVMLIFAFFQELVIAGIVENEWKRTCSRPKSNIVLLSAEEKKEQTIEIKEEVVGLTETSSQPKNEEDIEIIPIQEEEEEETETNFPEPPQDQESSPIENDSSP
The assay can be described thus: phage clone on Raji or Daudi cells with or without 1 mg/mL Rituxan.

Values joined by “and” are separate entries in the source; they are usually repeats but may differ in a detail not shown here. Equal entries are not always repeated.

B1: CD28-A10 (designed binder)
chain: CGPGRFQCESGQCVPATWVCDGDDDCADGSDEKSCATTAPTCESNQFQCGSGQCLPGTWRCDGVNDCADSSDETGCGRPGPGATSAPAACGPGRFQCNNGNCVPQTLGCDGDNDCGDSSDEANCSAPASEPPGSL
notes: LDL receptor A-domain trimer; also called CD28 10; CD28 trimer clone 10
In the case of B1, the “ELISA (column head; quantity not named)” value in assay [1] worked out at 1.7e-10. The same molecule returned a Kd in assay [2] of 29 nM. Further, in assay [3], the “IC50, PBMC assay on monkey cells (3H thymidine incorporation)” value amounted to 7 nM. The “IC50, PBMC assay on human cells (3H thymidine incorporation)” value in assay [4] was 3 nM and 40 ng/ml.

As for CLPERFQCAVPGYCIPLPGVCDGVNDCQEDSDEPNCRAPGLR (designed binder) [CD20 binding sequence 8], the binding result in assay [5] is on record as “binds”.

In the case of CRRNEFRCKSGHCVPQPLVCDGVRDCEDNSDEPSCGRPGPGATSAPAA (designed binder) [CD20 binding sequence 9], the binding result in assay [5] is recorded as “binds”.
